According to PMC5673899, “Structural basis for receptor recognition of pollen tube attraction peptides” (Nature Communications, 2017):
“Also recorded” adds a separate entry of the source.

Tests used:
[1] = system: prk6 pollen tubes transformed with PRK6 D234A; assay: Wavy assay, prk6 pollen tubes transformed with D234A PRK6; assay type: cell-based, Arabidopsis; conditions: 250 nM wild-type AtLURE1.2 in medium
Procedure: Attraction activities of mutant AtLURE1.2 peptides were examined for semi-in-vivo pollen tubes growing through cut, pollinated pistils by gelatin-beads assay and wavy assay, [20]. For the gelatin-beads assay, pollen tubes were grown on solid pollen germination medium poured into a mold made with 1-mm thick silicone rubber and cover glasses. After hand-pollination, the topside cover glass was removed and the medium was covered with hydrated silicone oil (KF-96–100CS; Shin-Etsu). Attraction of pollen tubes toward the peptide was evaluated using AtLURE1 peptide containing gelatine beads under an inverted microscope (IX71, Olympus) equipped with a micro-manipulator (Narishige). For the AtLURE1-responsive wavy assay, the purified AtLURE1.2 peptide was added to solid pollen germination medium, which was melted at 70 °C and then cooled to a certain degree. The mixture was mixed by vortexing and poured into the mold. Pollen tubes of each genotype were grown through cut styles, as mentioned above. Each peptide (25 μM in 10 mM Bis-Tris (pH 6.0) and 100 mM NaCl) was diluted to 250 nM by cultivation medium in both assays. […]
pollen tubes. Fluorescence is from mRuby2 fused to the C-terminal of PRK6 receptors, showing that all of mutant PRK6 receptors localize normally to the plasma membrane of the pollen tube tip. […]

SUMO-tagged MDIS1LRR = assay: Gel filtration assay with SUMO-tagged MDIS1^LRR with or without MIK1^LRR; assay type: binding; conditions: in the presence or absence of MIK1LRR, peer review file
From the text: We thank the reviewer for his/her high evaluation of our work and constructive […]
We have conducted more experiments including functional analysis of […]
bind to either MIK1 or MIK2 in their binding experiments. Considering the importance of genetic data published by other groups, I recommend that the authors conduct more binding experiments using MDIS1, MDIS2, and mixtures thereof with […]
interaction of AtLURE1.2 with the extracellular LRR domain of MIK1 (MIK1LRR) or MIK2 (MIK2LRR). All the proteins were purified from insect cells. As shown in […]
AtLURE1.2 in the assays, because the AtLURE1.2 and MIK1LRR or MIK2LRR were well separated in gel filtration. This is strikingly different from PRK6LRR with AtLURE1.2, which co-migrated when tested using the same assay. To further test interaction of AtLURE1.2 with MIK1LRR or MIK2LRR, we used ITC to quantify the binding affinity between the insect cell-generated AtLURE1.2 and MIK1LRR or […]
binding of AtLURE1.2 to MIK1LRR or MIK2LRR (Supplementary Fig. 6). In contrast to […]
into the MIK1LRR- or MIK2LRR-containing cell (Supplementary Fig. 6).
We then tested whether LURE1.2 interacts with MIK1LRR or MIK2LRR in the presence of the extracellular LRR domain of MDIS1 (MDIS1LRR). We therefore tried to purify MDIS1LRR from insect cells. However, although several constructs had been tested, expression of MDIS1LRR protein alone was undetectable. […]

B1: AtLURE1.2: mature form of AtLURE1.2 (residues 20–90), defensin-like cysteine-rich peptide expressed in insect cells (protein)
chain: TLINGSSDEERTYSFSPTTSPFDPRSLNQELKIGRIGYCFDCARACMRRGKYIRTCSFERKLCRCSISDIK
modifications: left off: His6, N-terminal, cleaved | SUMO, N-terminal, cleaved
notes: mature form of AtLURE1.2 (residues 20–90), defensin-like cysteine-rich peptide expressed in insect cells
For B1, the “wavy and branched pollen tube behavior” value [1] was “branched behavior is not observed; also recorded: greatly compromised”, the “interaction in gel filtration” value (SUMO-tagged MDIS1LRR) was “no interaction” and the “interaction in gel filtration” value (SUMO-tagged MDIS1LRR; listed as LURE1.2) was “well separated from the two proteins”.
